The record followed here is US8030017B2, “Thermostable luciferases and methods of production” (Promega Corporation, priority 1997, dated 2011).

Where a chain is given by its changes, count along the chain named.

Series [1] is described as follows: Robotic quantitative screen of E. coli lysates: luminescence activity (Li), expression/specific activity. The class given is biochemical. The settings on record: relative value. As for the experimental part: A plate containing cells is retrieved from the carousel and placed on the shaker for 3-5 minutes to fully mix the cells. The cells tend to settle from solution upon standing.
To measure Optical Density (O.D.), the plate is moved from the shaker to the locator near the luminometer; the lid is removed and the plate placed into the luminometer. The O.D. is measured using a 620 nm filter.
To prepare a cell lysate, the plate of cells is first retrieved from the refrigerator and mixed on the shaker to resuspend the cells. A new plate from the carousel without a lid is placed in the reagent dispenser and 20 μl of Buffer A is added to each well. This is placed in the pipetting station.
The plate is then moved to the reagent dispenser to add 175 μl of Buffer B, and then mixed on the shaker for about 15 minutes or more. The combination of the freeze/thaw and Buffer B will cause the cells to lyse.
(§1) One daughter plate is placed in the luminometer and the 1X assay method is used. After the assay, the plate is placed in the ambient incubator, and the second daughter plate is placed in the luminometer. For the second plate, the 0.02X assay method is used. This plate is discarded, and the first plate is returned from the incubator to the luminometer. The repeat assay method is used (i.e., no reagent is injected). Afterwards, the plate is again returned to the ambient incubator.
1X Assay reagent: 5 μM Luciferin; 175 μM ATP; 20 mM Tricine, pH 8.0; 0.1 mM EDTA
(§2) The following criteria were used for screening purposes. The temperature chosen for the enzyme stability parameter was such that the parent enzyme would decay 100 to 1000 fold over 10 hours (see Table 1). Criteria 1 is achieved manually; data for criteria 2-6 is generated by robotic analysis. For all criteria, the maximum value as described is selected. • 1. In vivo screen. The brightest clones are selected at a given temperature. • 2. Expression/specific activity. The value for normalized luminescence is calculated as the ratio of luminescence to optical density. The value is reported as the ratio with the reference value. • 3. Enzyme stability. Measurements of normalized luminescence of the incubated samples (3 taken over about 15 hours) are fitted to In(L)=In(L0)−(t/τ), where L is normalized luminescence and t is time. τ is a measure of the enzyme stability. The value is reported as the ratio with the reference value, and the correlation coefficients are calculated. • 4. Substrate binding. Measurements of normalized luminescence with 1X and 0.02X are taken at the initial reading set, and 1X and 0.06X are taken at the 5 hour set. The ratio of the 0.02X:1X and 0.06X:1X gives the relative luminescence at 0.02X and 0.06X concentrations. These values, along with the relative luminescence at 1X (i.e., 1), are fitted to a Lineweaver-Burk plot to yield the Km:app,total for the substrates ATP, luciferin, and CoA. The values are reported as the inverse ratio with the reference value, and the correlation coefficients are calculated. • 5. Signal stability. The luminescence of the initial IX luminescent reactions are re-measured 3 additional times over about 15 hours. These values are fitted to In(L)=In(L0)−(t/τ) and the integral over t (15 hours) is calculated. Signal stability is then calculated as S=(1−int(L)/L0t)^2. The values are reported as the inverse ratio with the reference value, and the correlation coefficients are calculated. • 6. Composite fitness. The values of criteria 2 through 5 are combined into a single composite value of fitness (or commercial utility). This value is based on a judgment of the relative importance of the other criteria. This judgment is given below:
Normalize luminescence data: For each measurement of luminescence in the eight daughter plates, the normalized luminescence is calculated by dividing the relative light units by the optical density of the original plate. […]

The nature of series [2]: Robotic quantitative screen of E. coli lysates: enzyme stability (tau) at elevated temperature. The class given is physicochemical. To be noted: relative value. As for the experimental part:
Two white assay plates (Labsystems #9502887) are obtained from the plate feeder and placed in the pipetter. The incubation plate from the shaker is placed in the pipetter, and the lid removed and placed on the nearby locator. Two daughter plates are made using the pipetting procedure (see “Create Pair of Daughter Plates from Incubation Plate”). Afterwards, the lid is replaced on the parent plate, and the plate is placed in a high temperature incubator. [ranging from 31° C. to about 65° C. depending on the clone.]
To begin the second set of measurements, the plate from the high temperature incubator is placed in the shaker to mix.
In the final set of measurements, the plate from the high temperature incubator is again placed in the shaker to mix.
as §2
Calculate enzyme stability (τ): For each sample, use linear regression to fit In(L1x)=In(L0)−(t/τ) using the three luminescence measurements with 1X substrate concentrations (Plates 1, 5, 8). Also calculate the regression coefficient.
Calculate the reference-normalized values: For the criteria parameter of each sample, a reference-normalized value is determined by calculating the ratio or inverse ratio with the respective reference value. The reference-normalized values are Li/Lir, τ/τr, Kmr/Km:app,total, and Sr/S, where reference values are calculated from the equations of the appropriate reference surface.
“Enzyme stability” was determined by the rate of activity loss from cell lysates over 10 hours. In successive rounds of evolution the incubation temperature of the lysates was increased.
Robotic Automation: Robotic automation was used in the quantitative screens to accurately perform the large number of required quantitative assays on the cultured cells. […]

A short description of series [3]: Robotic quantitative screen of E. coli lysates: signal stability (S), sustained enzymatic turnover. It is filed as biochemical. To be noted: inverse ratio with reference. As for the experimental part: as §1
The plate in the ambient incubator is returned to the luminometer and the repeat assay method is again used. The plate is returned afterwards to the ambient incubator.
The plate in the ambient incubator is returned to the luminometer and the repeat assay method is again used. The plate is discarded afterwards.
as §2
Calculate signal stability (S): For each sample, use linear regression to fit In(L)=In(L0)[…] using the four luminescence measurements of the initial microplate with 1X substrate concentrations (Plates 1, 3, 4, and 7). Also calculate the regression coefficient. From the calculated values of T and L0, calculate the integral of luminescence by int(L)=τL0(1−exp(−tf/τ)), where tf is the average time of the last measurement (e.g., 15 hours). The signal stability is calculated as S=(1−int(L)/Litf)^2, where Li is the initial measurement of normalized luminescence with 1× substrate concentration (Plate 1).
[Note: To correct for evaporation, an equation S=(1+K−int(L)/Litf)^2, may be used where 1/K=2(relative change of liquid volume at tf).]
Calculate the reference-normalized values: For the criteria parameter of each sample, a reference-normalized value is determined by calculating the ratio or inverse ratio with the respective reference value. […]

Setting [4] is: Control is Luc46-2H3 at 54° C. (=1).
Where [5] appears, read: Control is Luc71-5D4 at 60° C. (=1).
The mark [6] stands for this setting: Control is Luc84-3A6 at 64° C. (=1).

B1: 49-6c10: mutant luciferase, SEQ ID NO:15 (protein)
chain: MEDKNILYGPEPFYPLADGTAGEQMFYALSRYADISGCIALTNAHTKENVLYEELLKLSCRLAESFKKYGLKQNDTIAVCSENGLQFFLPIIASLYLGIIAAPVSDKYIERELIHSLGIVKPRIIFCSKNTFQKVLNVKSKLKYVETIIILDLNEDLGGYQCLNNFISQNSDINLDVKKFKPYSFNRDDQVALVMFSSGTTGVSKGVMLTHKNIVARFSHAKDPTFGNAINPTTAILTVIPFHHGFGMMTTLGYFTCGFRVVLMHTFEEKLFLQSLQDYKVESTLLVPTLMAFFAKSALVEKYDLSHLKEIASGGAPLSKEIGEMVKKRFKLNFVRQGYGLTETTSAVLITPNNDVRPGSTGKIVPFHAVKVVDPTTGKILGPNETGELYFKGDMIMKGYYNNEEATKAIINKDGWLRSGDIAYYDNDGHFYIVDRLKSLIKYKGYQVAPAEIEGILLQHPYIVDAGVTGIPDEAAGELPAAGVVVQTGKYLNEQIVQNFVSSQVSTAKWLRGGVKFLDEIPKGSTGKIDRKVLRQMFEKHTNG
modifications: Mutant luciferase
Turning to B1, the “Luminescence (Li)” value in series [1] (setting [4]) came to 0.57. In series [2] (setting [4]), the “Enzyme stability (tau)” value stood at 2.2. For the same molecule, the “Signal stability (S)” value in series [3] (setting [4]) is 1.

B2: 49-0g12: mutant luciferase, SEQ ID NO:16 (protein)
chain: B1 chain with L55F, A216V, H220L, N412T
modifications: Mutant luciferase
For the molecule B2, in series [1] (setting [4]), the “Luminescence (Li)” value is on record as 1. For the same molecule, the “Enzyme stability (tau)” value in series [2] (setting [4]) was 1.58. Also, the “Signal stability (S)” value in series [3] (setting [4]) is recorded as 1.08.

B3: 49-7a5: mutant luciferase, SEQ ID NO:17 (protein)
chain: B1 chain with L55F, H220I, F294L
modifications: Mutant luciferase
With B3, the “Luminescence (Li)” value in series [1] (setting [4]) was 1.08. In addition, the “Enzyme stability (tau)” value in series [2] (setting [4]) stood at 1.44. The “Signal stability (S)” value in series [3] (setting [4]) amounted to 0.99.

B4: 78-1e1-: mutant luciferase, SEQ ID NO:21 (protein)
chain: MADKNILYGPEPFYPLADGTAGEQMFDALSRYADIPGCIALTNAHTKENVLYEEFLKLSCRLAESFKKYGLKQNDTIAVCSENGLQYFLPVIASLYLGIIAAPVSDKYIERELIHSLGIVKPRIIFCSKNTFQKVLNVKSKLKYVETIIILDLNEDLGGYQCLNNFISQNSDINLDVKKFKPNSFNRDDQVALVMFSSGTTGVPKGVMLTHKNIVARFSIAKDPTFGNAINPTTAILTVIPFHHGFGMMTTLGYFTCGFRVVLMHTFEEKLFLQSLQDYKVESTLLVPTLMAFLAKSALVEKYDLSHLKEIASGGAPLSKEIGEMVKKRFKLNFVRQGYGLTETTSAVLITPKXXARPGSTGKIVPFHAVKVVDPTTGKILGPNEPGELYFKGAMIMKGYYNNEEATKAIIDKDGWLRSGDIAYYDNDGHFYIVDRLKSLIKYKGYQVAPAEIEGILLQHPYIVDAGVTGIPDEAAGELPAAGVVVQTGKYLNEQIVQNFVSSQVSTAKWLRGGVKFLDEIPKGSTGKIDRKVLRQMFEKHTNG
modifications: not fully specified; X: residue not identified in the source
For B4, the “Luminescence (Li)” value in series [1] (setting [5]) is 0.54. Moreover, the “Enzyme stability (tau)” value in series [2] (setting [5]) was found to be 8.9. In series [3] (setting [5]), the “Signal stability (S)” value came out at 0.9877.

B5: 78-2b4: mutant luciferase, SEQ ID NO:22 (protein)
chain: B4 chain with Y87F, I109V, I173S, I220L, P386T
modifications: not fully specified; X: residue not identified in the source
Regarding B5, in series [1] (setting [5]), the “Luminescence (Li)” value is 1.97. Moreover, the “Enzyme stability (tau)” value in series [2] (setting [5]) is reported as 1.36. The “Signal stability (S)” value in series [3] (setting [5]) was 1.0094.

B6: 85(86)-4f12: mutant luciferase, SEQ ID NO:23 (protein)
chain: MADKNILYGPEPFYPLADGTAGEQMFDALSRYADIPGCIALTNAHTKENVLYEEFLKLSCRLAESFKKYGLKQNDTIAVCSENGLQFFLPVIASLYLGIIVAPVNDKYIERELIHSLGIVKPRIIFCSKNTFQKVLNVKSKLKSVETIIILDLNEDLGGYQCLNNFISQNSDINLDVKKFKPYSFNRDDQVALIMFSSGTTGLPKGVMLTHKNIVARFSLAKDPTFGNAINPTTAILTVIPFHHGFGMMTTLGYFTCGFRVVLMHTFEEKLFLQSLQDYKVESTLLVPTLMAFLAKSALVEKYDLSHLKEIASGGAPLSKEIGEMVKKRFKLNFVRQGYGLTETTSAVLITPKXXARPGSTGKIVPFHAVKVVDPTTGKILGPNEPGELYFKGPMIMKGYYNNEEATKAIIDNDGWLRSGDIAYYDNDGHFYIVDRLKSLIKYKGYQVAPAEIEGILLQHPYIVDAGVTGIPDEAAGELPAAGVVVQTGKYLNEQIVQDFVSSQVSTAKWLRGGVKFLDEIPKGSTGKIDRKVLRQMFEKHTNG
modifications: not fully specified; X: residue not identified in the source
In the case of B6, the “Luminescence (Li)” value in series [1] (setting [6]) was found to be 1.1167. In addition, the “Enzyme stability (tau)” value in series [2] (setting [6]) was determined as 4.7851. For the same molecule, the “Signal stability (S)” value in series [3] (setting [6]) is recorded as 1.0092.
